Measured values taken from US20070203054A1 (YISSUM RESEARCH DEVELOPMENT COMPANY OF THE HEBREW …, published 2007).

B1: CD99-Ig fusion protein (Fc fusion)
chain: DGGFDLSDALPDNENKKPTAIPKKPSAGDDFDLGDAVVDGENDDPRPPNPPKPMPNPNPNHPSSSGSFSDADLADGVSGGEGKGGSDGGGSHRKEGEEAD
B2: NKp30-Ig fusion protein (Fc fusion, human, UniProt O14931 19-135, looked up, not shown: a dimerising Fc or GST)
chain: LWVSQPPEIRTLEGSSAFLPCSFNASQGRLAIGSVTWFRDEVVPGKEVRNGTPEFRGRLAPLASSRFLHDHQAELHIRDVRGHDASIYVCRVEVLGLGVGTGNGTRLVVEKEHPQLG

What follows are molecules tested against HA of influenza virus X-127 (H1N1) on infected cells (influenza A virus X-127 (H1N1)) (assay: not given).
With “NKp46-Ig fusion protein (from UniProt O76036 22-254) (Fc fusion)” the MFI was 107. “NKp46D2-Ig fusion protein produced in COS cells (membrane proximal domain of NKp46 fused to Fc of human IgG1) (from UniProt O76036 121-254) (Fc fusion)” showed an MFI of 160. “NKp30-Ig fusion protein (from UniProt O14931 19-135) (Fc fusion)” gave an MFI of 6. Work on “NKp44-Ig fusion protein (from UniProt O95944 22-190) (Fc fusion)” yielded an MFI of 220. For “NKp46D1-Ig fusion protein (membrane distal domain of NKp46 fused to Fc of human IgG1) (from UniProt O76036 22-120) (Fc fusion)”, the MFI was 5. B1 showed an MFI of 1.

What follows are molecules tested against rosettes of HA from X31 (A/Aichi/2/68xpr/8/34) H3N2 influenza virus (influenza A virus X31 …, UniProt P03437 17-520) (assay: ELISA, plates coated with HA rosettes).
B2: no binding.
